The text below walks through data of article PMC3800186 (Biochemistry, 2013).

This experiment has as its target Full-length HIV-1 YU2 gp120 (HIV-1 YU2, UniProt P35961 32-498). Kind of experiment: ELISA.

Numbered stars: 1 amine (or outer) side, 2 acyl side, 3 side chain; on linkers, the order of the positions; unused ones are H or OH. Square brackets hold non-standard residues; d marks the D form. Ends that are not written are not given here. X3 = Pro(4S-(4-(4-aminophenyl)-1,2,3-triazol-1-yl)), O=C([C@@H]1C[C@H](n2cc(-c3ccc(N[*:3])cc3)nn2)CN1[*:1])[*:2]; Cit = NC(=O)NCCC[C@H](N)C(=O)O

B1: UM25 peptide triazole (peptide)
chain: [Cit]NNI[X3]WS-NH2
Turning to B1, the IC50 is 18 µM.

For orientation: IC50 means the concentration at which inhibition is half-maximal. Lower therefore signals higher potency.
